{"source": "paper PMC7176140", "about": "“Thermal stability analyses of human PERIOD-2 C-terminal domain using dynamic light scattering and circular dichroism” (PLoS ONE, 2020)", "proteins": {"B1": {"name": "human PERIOD-2 C-terminal domain (recombinant hPER2c, residues 1130 to 1252) (domain or fragment, UniProt O15055 1130-1252, looked up)", "chain": "CVLQDPIWLLMADADSSVMMTYQLPSRNLEAVLKEDREKLKLLQKLQPRFTESQKQELREVHQWMQTGGLPAAIDVAECVYCENKEKGNICIPYEEDIPSLGLSEVSDTKEDENGSPLNHRIE", "notes": "C-terminal domain of human PER2 (PERIOD-2), residues 1130 to 1252; Elutes from SEC as an aggregated form, 40mer, 20mer and dimer; The authors conclude that disulfide bonds stabilise the dimer; No tag removal is described; also called human PER2c; not shown: His tag (from the vector pCold I)"}}, "target": "the molecule itself", "assay": "SEC; analytical Superdex 200 Increase 10/300 GL; hPER2c dimer fraction treated with 20mM DTT for 36hrs; buffer 20mM Tris-base pH7.5, 50mM NaCl, 20mM DTT; calibrated with molecular weight standards", "data": [{"protein": "B1", "values": [{"measurement": "stoichiometry N", "result": 6}]}]}
